Results reported in patent US20200262867A1 (WNTRX PHARMACEUTICALS, published 2020).
*1 amine or outer side, *2 acyl side, *3 side chain or, on linkers, in order; H or OH if unused. Bridges are numbered along the chain shown (N, C = ends). Where no end group is shown, it is not given here. [ ]: non-standard residue; d: D form. Azetidine3carboxylic = O=C(C1CN([*:1])C1)[*:2]; dimethyl = N-terminal dimethyl modification; Phe(4-Cl) = N[C@@H](Cc1ccc(Cl)cc1)C(=O)O; 2Nal = N[C@@H](Cc1ccc2ccccc2c1)C(=O)O; NMeCha = CN[C@@H](CC1CCCCC1)C(=O)O; NMeR = CN[C@@H](CCCNC(=N)N)C(=O)O; hArg = N=C(N)NCCCC[C@H](N)C(=O)O; NMeQ = CN[C@@H](CCC(N)=O)C(=O)O; dNMeQ = CN[C@H](CCC(N)=O)C(=O)O; Cha = N[C@@H](CC1CCCCC1)C(=O)O; dCha = N[C@H](CC1CCCCC1)C(=O)O; AllylGly = C=CC[C@H](N)C(=O)O; αMeL = CC(C)C[C@](C)(N)C(=O)O; Cba = N[C@@H](CC1CCC1)C(=O)O; S5 = C=CCCC[C@](C)(N)C(=O)O; Nle = CCCC[C@H](N)C(=O)O; Ac4c = NC1(C(=O)O)CCC1

T1: β-catenin (UniProt P35222 1-781, limits assumed)
T1 construct: also called beta-catenin
T1 sequence (looked up): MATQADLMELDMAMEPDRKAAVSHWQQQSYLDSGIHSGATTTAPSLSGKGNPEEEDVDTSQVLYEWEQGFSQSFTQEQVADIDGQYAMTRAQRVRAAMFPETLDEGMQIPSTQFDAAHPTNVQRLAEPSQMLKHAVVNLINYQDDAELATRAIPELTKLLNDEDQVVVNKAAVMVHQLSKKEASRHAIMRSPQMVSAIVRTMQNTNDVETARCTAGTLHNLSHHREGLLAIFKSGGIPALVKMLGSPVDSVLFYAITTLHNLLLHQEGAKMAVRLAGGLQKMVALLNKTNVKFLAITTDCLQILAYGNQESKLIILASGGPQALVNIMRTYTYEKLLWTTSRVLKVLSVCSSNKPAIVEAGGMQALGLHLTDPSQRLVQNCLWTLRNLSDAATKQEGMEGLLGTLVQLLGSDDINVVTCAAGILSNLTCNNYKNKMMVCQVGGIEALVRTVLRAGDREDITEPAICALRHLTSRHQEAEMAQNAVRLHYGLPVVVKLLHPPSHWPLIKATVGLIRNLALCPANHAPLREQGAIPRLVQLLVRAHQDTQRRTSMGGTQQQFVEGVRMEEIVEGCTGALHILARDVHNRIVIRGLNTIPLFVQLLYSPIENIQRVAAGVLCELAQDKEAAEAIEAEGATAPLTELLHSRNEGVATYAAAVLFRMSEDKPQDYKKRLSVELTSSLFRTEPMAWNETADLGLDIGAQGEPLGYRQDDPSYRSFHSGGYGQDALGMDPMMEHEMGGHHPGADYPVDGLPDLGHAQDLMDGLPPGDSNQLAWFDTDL

B1: SEQ ID NO: 174 (peptide)
peptide: Ac-LQTLR[S5]IQR[S5][NMeCha][2Nal]-NH2
modifications: staple 6-10; not fully specified (residue 2); printed as L(N-methylQ)TLRXIQRX(N-methylCha)(2-Nal); also: N-methylQ at 2: D or L (both stated)
B2: SEQ ID NO: 184 (peptide)
peptide: Ac-HRQ[NMeR]SLQTLR[S5]IQR[S5][Cha][2Nal]-NH2
modifications: staple 11-15
SMILES: CC[C@H](C)[C@@H]1NC(=O)[C@@](C)(NC(=O)[C@H](CCCNC(=N)N)NC(=O)[C@H](CC(C)C)NC(=O)[C@@H](NC(=O)[C@H](CCC(N)=O)NC(=O)[C@H](CC(C)C)NC(=O)[C@H](CO)NC(=O)[C@H](CCCNC(=N)N)N(C)C(=O)[C@H](CCC(N)=O)NC(=O)[C@H](CCCNC(=N)N)NC(=O)[C@H](Cc2c[nH]cn2)NC(C)=O)[C@@H](C)O)CCCC=CCCC[C@@](C)(C(=O)N[C@@H](CC2CCCCC2)C(=O)N[C@@H](Cc2ccc3ccccc3c2)C(N)=O)NC(=O)[C@H](CCCNC(=N)N)NC(=O)[C@H](CCC(N)=O)NC1=O
B3: SEQ ID NO: 173 (peptide)
peptide: Ac-LQTLR[S5]IQR[S5][dCha][2Nal]-NH2
modifications: staple 6-10; not fully specified (residue 2); printed as L(N-methylQ)TLRXIQRXD(Cha)(2-Nal); also: N-methylQ at 2: D or L (both stated)
B4: SEQ ID NO: 158 (peptide)
peptide: Ac-H[NMeR]QRSLQTLR[S5]IQR[S5][Cba][2Nal]-NH2
modifications: staple 11-15; not fully specified; printed as H(R-Me)QRSLQTLRXIQRX(CBA)(2-Nal), X/X stapled, (S) α-methyl, N-terminal Ac, C-terminal NH2
B5: SEQ ID NO: 183 (peptide)
peptide: Ac-H[hArg]QRSLQTLR[S5]IQR[S5][Cha][2Nal]-NH2
modifications: staple 11-15
SMILES: CC[C@H](C)[C@@H]1NC(=O)[C@@](C)(NC(=O)[C@H](CCCNC(=N)N)NC(=O)[C@H](CC(C)C)NC(=O)[C@@H](NC(=O)[C@H](CCC(N)=O)NC(=O)[C@H](CC(C)C)NC(=O)[C@H](CO)NC(=O)[C@H](CCCNC(=N)N)NC(=O)[C@H](CCC(N)=O)NC(=O)[C@H](CCCCNC(=N)N)NC(=O)[C@H](Cc2c[nH]cn2)NC(C)=O)[C@@H](C)O)CCCC=CCCC[C@@](C)(C(=O)N[C@@H](CC2CCCCC2)C(=O)N[C@@H](Cc2ccc3ccccc3c2)C(N)=O)NC(=O)[C@H](CCCNC(=N)N)NC(=O)[C@H](CCC(N)=O)NC1=O
B6: SEQ ID NO: 129 (peptide)
peptide: Ac-L[NMeQ]TLR[S5][Cba]QR[S5][Cba][2Nal]-NH2
modifications: staple 6-10; not fully specified; printed as L(N-methylQ)TLRX(CBA)QRX(CBA)(2-Nal)
B7: SEQ ID NO: 195 (peptide)
peptide: Ac-L[NMeQ]TLR[S5]IQR[S5][Phe(4-Cl)][2Nal]-NH2
modifications: staple 6-10; not fully specified; printed as L(N-methylQ)TLRXIQRX(4-Cl-Ph)(2-Nal), X/X stapled, (S) α-methyl, N-terminal Ac, C-terminal NH2
B8: SEQ ID NO: 123 (peptide)
peptide: Ac-L[NMeQ]T[Cha]R[S5]IQR[S5][Cba][2Nal]-NH2
modifications: staple 6-10; not fully specified; printed as L(N-methylQ)T(Cha)RXIQRX(CBA)(2-Nal)
B9: SEQ ID NO: 172 (peptide)
peptide: Ac-LQTLR[S5]IQR[S5][αMeL][2Nal]-NH2
modifications: staple 6-10; not fully specified (residue 2); printed as L(N-methylQ)TLRXIQRX(α-methylL)(2-Nal); also: N-methylQ at 2: D or L (both stated)
B10: SEQ ID NO: 114 (peptide)
peptide: [Cba][dNMeQ]TLR[S5]IQR[S5][Cba][2Nal]
modifications: staple 6-10; not fully specified (N-terminus, C-terminus); printed as (CBA)(N-methylQ)TLRXIQRX(CBA)(2-Nal), X/X stapled, (S) α-methyl, N-terminal Ac, C-terminal NH2
B11: SEQ ID NO: 178 (peptide)
peptide: Ac-HRQRSLQTLR[S5]IQR[S5][Azetidine3carboxylic][2Nal]-NH2
modifications: staple 11-15
SMILES: CC[C@H](C)[C@@H]1NC(=O)[C@@](C)(NC(=O)[C@H](CCCNC(=N)N)NC(=O)[C@H](CC(C)C)NC(=O)[C@@H](NC(=O)[C@H](CCC(N)=O)NC(=O)[C@H](CC(C)C)NC(=O)[C@H](CO)NC(=O)[C@H](CCCNC(=N)N)NC(=O)[C@H](CCC(N)=O)NC(=O)[C@H](CCCNC(=N)N)NC(=O)[C@H](Cc2c[nH]cn2)NC(C)=O)[C@@H](C)O)CCCC=CCCC[C@@](C)(C(=O)N2CC(C(=O)N[C@@H](Cc3ccc4ccccc4c3)C(N)=O)C2)NC(=O)[C@H](CCCNC(=N)N)NC(=O)[C@H](CCC(N)=O)NC1=O

These binders were tested against T1, β-catenin (assay: ALPHA Screen (BCL9/β-catenin);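 note: bead proximity readout with the polypeptide linked to donor beads and β-catenin fixed on acceptor beads, their binding bringing the beads close enough to emit signal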).
Description: In this assay, a polypeptide is conjugated to a donor bead and its target protein (i.e., β-catenin) is attached to an acceptor bead. When the two beads are in proximity due to the binding of the polypeptide to the target protein, a signal is generated and the binding affinity of the polypeptide can be quantitatively calculated. The assay may be conducted in the presence or absence of an unconjugated control polypeptide.

In order of rising IC50:
1. B5  0.119 µM
2. B2  0.195 µM
3. Ac-HRQRSLQTLR[S5]IQR[S5][Ac4c][2Nal]-NH2 (staple 11-15) [SEQ ID NO: 176]  0.236 µM
4. Ac-HRQRSL[NMeQ]TLR[S5]IQR[S5][Cba][2Nal]-NH2 (staple 11-15) [SEQ ID NO: 153]  0.261 µM
5. Ac-HR[NMeQ]RSL[NMeQ]TLR[S5]IQR[S5][Cba][2Nal]-NH2 (staple 11-15) [SEQ ID NO: 155]  0.281 µM
6. B4  0.383 µM
7. B11  0.563 µM
8. Ac-RERSLQTLR[S5]IQR[S5][Cba][2Nal]-NH2 (staple 10-14; not fully specified; printed as RERSLQTLRXIQRX(CBA)(2-Nal)) [SEQ ID NO: 13]  0.844 µM
9. Ac-LETLR[S5]IQR[S5][Cba][2Nal]-NH2 (staple 6-10) [SEQ ID NO: 109]  0.913 µM
10. Ac-RERSLQTLR[S5]IQR[S5]L[2Nal]-NH2 (staple 10-14; not fully specified; printed as RERSLQTLRXIQRXL(2-Nal)) [SEQ ID NO: 5]  1.45 µM
11. B6  2.06 µM
12. dimethyl-L[NMeQ]TLR[S5]IQR[S5][Cba][2Nal]-NH2 (staple 6-10; not fully specified) [SEQ ID NO: 144]  2.13 µM
13. B8  3.62 µM
14. Ac-QERSLQTLR[S5]IQR[S5]L[2Nal]-NH2 (staple 10-14; not fully specified; printed as QERSLQTLRXIQRXL(2-Nal)) [SEQ ID NO: 10]  4.2 µM
15. Ac-LQT[Cba]R[S5]IQR[S5][Cba][2Nal]-NH2 (staple 6-10) [SEQ ID NO: 115]  4.53 µM
16. B10  4.9 µM
17. Ac-LQTLR[S5]IQH[S5][Cba][2Nal]-NH2 (staple 6-10) [SEQ ID NO: 112]  5.65 µM
18. {4‑biphenyl acetic acid}-L[NMeQ]TLR[S5]IQR[S5][Cba][2Nal]-NH2 (staple 6-10; not fully specified) [SEQ ID NO: 143]  6.66 µM
19. B1  6.88 µM
20. Ac-[Cba]QTLR[S5]IQR[S5][Cba][2Nal]-NH2 (staple 6-10) [SEQ ID NO: 113]  6.99 µM
21. B9  8 µM
22. Ac-LQTLR[S5]IQR[S5][AllylGly][2Nal]-NH2 (staple 6-10) [SEQ ID NO: 175]  9.71 µM
23. Ac-LQTLR[S5]IQR[S5][dL][2Nal]-NH2 (staple 6-10) [SEQ ID NO: 105]  10.7 µM
24. B7  13 µM
25. LQTLR[Nle]IQR[Nle]L[2Nal]PD [SEQ ID NO: 54]  14.7 µM
26. B3  14.7 µM
